Biological target: VZV glycoprotein B H527P on extracellular vesicles (varicella-zoster virus (VZV)) (UniProt P09257)
Assay: cryo-EM structure; cryo-electron tomography with subtomogram averaging (EMAN2) of gB[H527P] in the membranes of extracellular vesicles from BHK-21 cells; C3 symmetry applied; two classes by focused classification

Substance: VZV glycoprotein B H527P on extracellular vesicles (from UniProt P09257 72-931) (natural protein)
- stoichiometry N: 3
